Results: paper PMC6521699
One block for each molecule: values may come before it.

Columns and labels:
[1] = biological target: mouse IL-2Rβ ectodomain, biotinylated (mouse); test: SPR
[2] = biological target: human IL-2 receptor βƔc heterodimer (human) (UniProt P14784); test: SPR
[3] = biological target: mouse IL-2 receptor βƔc heterodimer (mouse); test: SPR
[4] = biological target: human IL-2Rβ, biotinylated (human) (UniProt P14784); test: SPR
[5] = biological target: human IL-2 receptor βƔc heterodimer (human) (UniProt P14784)
[6] = biological target: mouse IL-2 receptor βƔc heterodimer (mouse)
[7] = biological target: IL-2Rβγc (species not stated, Figure E3d) (not stated (human and mouse receptors made)) (UniProt P14784); test: BLI

Kd [1]: 214 nM
Kd [2]: 301 nM
Kd [3]: 312 nM
Molecule: Super-2 / Superkine (from UniProt P60568 21-153) (ligand)

Kd [1]: 8110 nM
Kd [3]: 492 nM
Molecule: human interleukin-2 (from UniProt P60568 21-153) (ligand)

Kd [1]: 16.1 nM
Kd [2]: 18.8 nM
Kd [3]: 38.4 nM
Kd [4]: 11.2 nM
EC50 of STAT5 phosphorylation in IL-2Rα- (CD25-) human YT-1 NK cells [5]: 0.05 nM
EC50 of STAT5 phosphorylation in IL-2Rα- mouse primary T cells [6]: 0.13 nM
Kd [7]: 6.9 nM
Molecule: Neoleukin-2/15 (designed binder)

Kd [1]: 1500 nM
B1: mouse interleukin-2 (ligand)
chain: APTSSSTSSSTAEAQQQQQQQQQQQQHLEQLLMDLQELLSRMENYRNLKLPRMLTFKFYLPKQATELKDLQCLEDELGPLRHVLDLTQSKSFQLEDAENFISNIRVTVVKLKGSDNTFECQFDDESATVVDFLRRWIAFCQSIISTSPQ
